{
  "source": "patent US20240293509A1",
  "about": "“METHODS OF TREATING INFLAMMATORY BOWEL DISEASE” (UNIVERSITY OF PITTSBURGH - OF THE COMMONWEALTH SYSTEM OF …, priority 2021, published 2024)",
  "assay": "In vitro degradation of IL-2 in simulated gastric fluid",
  "format": "in vitro ADME",
  "conditions": "free IL-2, pH 2.0, 100 min, 37° C., ELISA",
  "protocol": "In silico and in vitro degradation of bioactive factors within the gastric environment. The in silico cytokine degradation was predicted using the Expasy PeptideCutter software package (E. Gasteiger et al., in The Proteomics Protocols Handbook, J. M. Walker, Ed. (Humana Press, Totowa, N J, 2005), pp. 571-607). In vitro degradation of IL-2 was measured in simulated gastric fluid (Ricca Chemical Company, Arlington, Texas) at pH 2.0. For the second set of the experimental conditions, pepsin (3.2 μg/L, Sigma) was also included. The samples were incubated for […] at 37° C. on a rocker and then neutralized before ELISA assay (R and D systems) for the soluble factors. For the MP containing factors, following treatment in the simulated gastric fluid the MPs were removed and washed multiple times with PBS supplemented with BSA and then incubated for 22 hours in PBS with 0.5% BSA. The released IL-2 was then quantitated with an ELISA excluding that which was released during the initial […] incubation in the simulated gastric fluid.",
  "data": [
    {"substance": "IL-2: recombinant IL-2 (murine, R&D Systems); in silico prediction on SEQ ID NO: 9", "values": [
      {"measurement": "degradation in simulated gastric fluid containing pepsin", "value": "complete degradation"}
    ]}
  ]
}
